Laboratory results published in PMC1373645, “Lactate production yield from engineered yeasts is dependent from the host background, the lactate dehydrogenase source and the lactate export” (Microbial Cell Factories, 2006).

Substrate: CC(=O)C(=O)O
Assay: cells, lysate or membranes
Type: biochemical, Lactiplantibacillus plantarum
Conditions: NADH, acetate buffer pH 5.6, 25 °C, no fructose 1,6-diphosphate, Table 2 prints 1,50

B1: L. plantarum LDH (LpLDH, plLDH) (Lactiplantibacillus plantarum WCFS1; D94G) (protein)
chain: MSSMPNHQKVVLVGDGAVGSSYAFAMAQQGIAEEFVIVDVVKDRTKGDALDLEDAQAFTAPKKIYSGEYSDCKDADLVVITAGAPQKPGESRLGLVNKNLNILSSIVKPVVDSGFDGIFLVAANPVDILTYATWKFSGFPKDRVIGSGTSLDSSRLRVALGKQFNVDPRSVDAYIMGEHGDSEFAAYSTATIGTRPVRDVAKEQGVSDEDLAKLEDGVRNKAYDIINLKGATFYGIGTALMRISKAILRDENAVLPVGAYMDGQYGLNDIYIGTPAVIGGTGLKQIIESPLSADELKKMQDSAATLKKVLNDGLAELENK
notes: full length, TTG start changed to ATG, untagged, expressed in S. cerevisiae GRF18U; crude cell extract; homotetramer
  Km: 1010 µM
